In patent publication US20220313819A1, “COMBINATION THERAPY FOR THE TREATMENT OF SOLID AND HEMATOLOGICAL CANCERS” (Arch Oncology, Inc., priority 2019, published 2022):

B1: VLX9 IgG2 (xi): chimeric VLX9 anti-CD47 mAb, human IgG2 (antibody)
heavy: QVQLQQFGAELAKPGASVQMSCKASGYTFTNYWIHWVKQRPGQGLEWIGYTDPRTDYTEYNQKFKDKATLAADRSSSTAYMRLSSLTSEDSAVYYCAGGGRVGLGYWGHGSSVTVSSASTKGPSVFPLAPCSRSTSESTAALGCLVKDYFPEPVTVSWNSGALTSGVHTFPAVLQSSGLYSLSSVVTVPSSNFGTQTYTCNVDHKPSNTKVDKTVERKCCVECPPCPAPPVAGPSVFLFPPKPKDTLMISRTPEVTCVVVDVSHEDPEVQFNWYVDGVEVHNAKTKPREEQFNSTFRVVSVLTVVHQDWLNGKEYKCKVSNKGLPAPIEKTISKTKGQPREPQVYTLPPSREEMTKNQVSLTCLVKGFYPSDIAVEWESNGQPENNYKTTPPMLDSDGSFFLYSKLTVDKSRWQQGNVFSCSVMHEALHNHYTQKSLSLSPGK
light: DVFMTQTPLSLPVSLGDQASISCRSSQNIVQSNGNTYLEWYLQKPGQSPKLLIYKVFHRFSGVPDRFSGSGSGTDFTLKISRVEAEDLGVYYCFQGSHVPWTFGGGTKVEIKRTVAAPSVFIFPPSDEQLKSGTASVVCLLNNFYPREAKVQWKVDNALQSGNSQESVTEQDSKDSTYSLSSTLTLSKADYEKHKVYACEVTHQGLSSPVTKSFNRGEC
B2: VLX9 IgG (murine): murine VLX9 anti-CD47 antibody (antibody, V domains shown)
VH: QVQLQQFGAELAKPGASVQMSCKASGYTFTNYWIHWVKQRPGQGLEWIGYTDPRTDYTEYNQKFKDKATLAADRSSSTAYMRLSSLTSEDSAVYYCAGGGRVGLGYWGHGSSVTVSS
VL: DVFMTQTPLSLPVSLGDQASISCRSSQNIVQSNGNTYLEWYLQKPGQSPKLLIYKVFHRFSGVPDRFSGSGSGTDFTLKISRVEAEDLGVYYCFQGSHVPWTFGGGTKVEIK

Tests used:
hRBCs = test: Hemagglutination of washed human red blood cells; assay type: cell-based
Description: Hemagglutination of hRBCs was assessed following incubation of hRBCs with various concentrations of chimeric and humanized VLX4, VLX8, and VLX9 mAbs in vitro essentially as described by Kikuchi et al. Biochem Biophys Res. Commun (2004) 315:912-918. Blood was obtained from healthy donors, diluted (1:50) in PBS/1 mM EDTA/BSA and washed 3 times with PBS/EDTA/BSA. hRBCs were added to U-bottomed 96 well plates with equal volumes of the antibodies (75 μl of each) and incubated for 3 hrs at 37° C. and overnight at 4° C.

Jurkat cells [1] = test: Phagocytosis of tumor cells by human macrophages; assay type: cell-based; settings: 1 μg/ml mAb
Description: Human derived macrophages were derived from leukapheresis of healthy human peripheral blood and incubated in AIM-V media (Life Technologies) for 7-10 days. For the in vitro phagocytosis assay, macrophages were re-plated at a concentration of 1×10^4 cells per well in 100 ul of AIM-V media in a 96-well plate and allowed to adhere for 24 hrs. Once the effector macrophages adhered to the culture dish, the target human cancer cells (Jurkat) were labelled with 1 μM 5(6)-Carboxyfluorescein diacetate N-succinimidyl ester (CFSE; Sigma Aldrich) and added to the macrophage cultures at a concentration of 5×10^4 cells in […] of AIM-V media (5:1 target to effector ratio). VLX4, VLX8, and VLX9 CD47 mAbs (1 μg/ml) were added immediately upon mixture of target and effector cells and allowed to incubate at 37° C. for 2-3 hours. After 2-3 hrs, all non-phagocytosed cells were removed and the remaining cells washed three times with phosphate buffered saline (PBS; Sigma Aldrich). Cells were then trypsinized, collected into microcentrifuge tubes, and incubated in 100 ng of allophycocyanin (APC) labelled CD14 antibodies (BD Biosciences) for 30 minutes, washed once, and analyzed by flow cytometry (Accuri C6; BD Biosciences) for the percentage of CD14^+ cells that were also CFSE^+ indicating complete phagocytosis.

Jurkat cells [2] = test: Cell death by soluble mAb, annexin V / 7-AAD; assay type: cell-based, human; settings: 1 μg/ml, 24 hrs
Description: Induction of cell death by soluble anti-CD47 mAbs is measured in vitro (Manna et al. (2003) J. Immunol. 107 (7): 3544-53, Kikuchi et al. Biochem Biophys Res. Commun. 315: 912-8, 2004), Pettersen et al. J. Immuno. 162: 7031-7040, 1999), Manna et al. Cancer Research, 64: 1026-1036, 2004). For the in vitro cell death assay, 1×10^5 transformed human T cells (Jurkat cells) were incubated with soluble humanized VLX4, VLX8, and VLX9 CD47 mAbs (1 μg/ml) for 24 hrs at 37° C. As cell death occurs, mitochondrial membrane potential is decreased, the inner leaflet of the cell membrane is inverted, exposing phosphatidylserines (PS), and propidium iodide (PI) or 7-aminoactinomycin D (7-AAD) is able to incorporate into nuclear DNA. In order to detect these cellular changes, cells were then stained with fluorescently labelled annexin V and PI or 7-aminoactinomycin D (7-AAD) (BD Biosciences) and the signal detected using an Accuri C6 flow cytometer (BD Biosciences). The increase in PS exposure is determined by measuring the percent increase in annexin V signal and the percent of dead cells by measuring the percent increase in PI or 7-AAD signal. Annexin V positive (annexin V^+) or annexin V positive/7-AAD negative (annexin V^+/7-AAD^−) cells are observed in early stages of cell death and annexin V positive/7-AAD positive (annexin V^+/7-AAD^+) cells are dead cells. […]

[3] = target: T1, His-CD47 (recombinant human CD47) (Homo sapiens, UniProt Q08722); test: Solid-phase CD47 ELISA at pH 6 or pH 8; assay type: binding; settings: pH 6.0 versus pH 8.0
T1 construct: His; purchased AcroBiosystems
Description: Binding by soluble anti-CD47 mAbs to immobilized recombinant human CD47 and to human CD47 expressed on cells was measured in vitro. For the in vitro binding to recombinant CD47, His-CD47 (AcroBiosystems) was adsorbed to high-binding microtiter plates overnight at 4° C. The wells were washed and varying concentrations of anti-CD47 mAbs were added to the wells in buffers with a of either pH 6 or pH 8 for 1 hour. The wells were washed and then incubated with HRP-labelled secondary antibody for 1 hour at pH 6 or pH 8 followed by addition of peroxidase substrate. The apparent affinities were calculated using non-linear fit model (Graphpad Prism).

Row | Molecule | HA hRBC (hRBCs; hemagglutination, chimeric (xi) mAbs, Table 1) | visible hemagglutination of hRBCs (hRBCs; result in words, mAb concentrations from 50 μg/ml down) | phagocytosis of Jurkat cells by human macrophages (Jurkat cells [1]) | PS exposure and cell death of Jurkat cells (annexin V^+, annexin V^+/7-AAD^−, annexin V^+/7-AAD^+) (Jurkat cells [2]) | pH dependent binding to His-CD47 [3]
1 | B1 | Yes | caused visible hemagglutination | increased phagocytosis | induced increased PS exposure and cell death | 
2 | B2 |  |  |  |  | did not display pH dependence
